Measurements published in publication doi:10.1101/2021.07.07.451439.

How the values were obtained:
TRIM27 = TRIM27 (UniProt P14373); test: GFP-NanoTrap IP of GFP-USP7, immunoblot; conditions: reference: wild type GFP-USP7; sites S18
TCEAL4 = TCEAL4 (UniProt Q96EI5); test: GFP-NanoTrap IP, blot of lower MW TCEAL4; conditions: reference: wild type GFP-USP7; sites S18

binding against the reference (TRIM27): stronger | binding against the reference (TCEAL4): stronger
Substance: USP7 (from UniProt Q93009) S18A
